Positions count from the first letter of the chain named. Numbers in names are those of the source.
How the values were obtained:
[1] = biological target: T1, ThrA (bifunctional aspartokinase (AK)/homoserine dehydrogenase (HDH) 1) (Escherichia coli, UniProt P00561); experiment: homoserine dehydrogenase, NADPH consumption at […] nm; format: biochemical; settings: 0.2 mM NADPH, 1 mM substrate, 100 mM KCl, pH 8.0, 37 °C
T1 sequence (P00561 1-820): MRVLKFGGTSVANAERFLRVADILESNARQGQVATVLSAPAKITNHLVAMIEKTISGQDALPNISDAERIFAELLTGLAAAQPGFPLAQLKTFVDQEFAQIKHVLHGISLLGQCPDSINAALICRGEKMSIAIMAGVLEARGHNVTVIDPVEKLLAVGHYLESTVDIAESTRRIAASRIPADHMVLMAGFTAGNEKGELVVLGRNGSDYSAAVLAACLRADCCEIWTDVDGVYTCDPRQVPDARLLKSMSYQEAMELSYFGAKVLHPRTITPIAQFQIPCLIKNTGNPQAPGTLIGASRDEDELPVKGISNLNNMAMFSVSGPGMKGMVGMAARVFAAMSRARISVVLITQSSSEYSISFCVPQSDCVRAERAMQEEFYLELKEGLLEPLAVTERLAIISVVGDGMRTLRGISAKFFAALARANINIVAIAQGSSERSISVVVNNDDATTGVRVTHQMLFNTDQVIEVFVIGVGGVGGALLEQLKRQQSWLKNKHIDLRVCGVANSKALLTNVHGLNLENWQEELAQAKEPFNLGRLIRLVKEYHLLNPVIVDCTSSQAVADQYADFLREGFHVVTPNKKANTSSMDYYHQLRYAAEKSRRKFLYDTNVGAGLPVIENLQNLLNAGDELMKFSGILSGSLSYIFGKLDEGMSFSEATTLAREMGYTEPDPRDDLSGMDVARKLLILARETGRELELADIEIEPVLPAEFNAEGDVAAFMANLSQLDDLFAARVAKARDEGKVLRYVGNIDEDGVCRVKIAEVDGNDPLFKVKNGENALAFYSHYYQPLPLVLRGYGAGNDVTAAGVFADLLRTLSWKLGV

[2] = biological target: T2, Sad (NAD(P)+-dependent succinate semialdehyde dehydrogenase, SSADH) (Escherichia coli, UniProt P76149); experiment: X-ray crystallography; format: binding
T2 construct: dimeric on size exclusion

[3] = biological target: T3, Sad (NAD(P)+-dependent succinate semialdehyde dehydrogenase, SSADH) (Escherichia coli, UniProt P76149, Q262R); experiment: X-ray crystallography; format: binding; settings: 5 mM NAD+, 1 mM TCEP
T3 construct: dimeric on size exclusion

[4] = biological target: T3, Sad (NAD(P)+-dependent succinate semialdehyde dehydrogenase, SSADH); experiment: NADH formation at […] nm, substrate-inhibition fit; format: biochemical; settings: 1 mM NAD+, 75 mM HEPES pH 8.0, 37 °C
[5] = biological target: T2, Sad (NAD(P)+-dependent succinate semialdehyde dehydrogenase, SSADH); experiment: NADH formation at […] nm, substrate-inhibition fit; format: biochemical; settings: 1 mM NAD+, 75 mM HEPES pH 8.0, 37 °C
[6] = biological target: T1, ThrA (bifunctional aspartokinase (AK)/homoserine dehydrogenase (HDH) 1); experiment: aspartate kinase, PK/LDH-coupled, NADH at […] nm; format: biochemical; settings: 4 mM ATP, 5 mM L-aspartate, 5 mM MgCl2, pH 8.0, 37 °C
[7] = substrate: O=CCCC(=O)O; experiment: purified protein; format: biochemical, Escherichia coli; settings: 75 mM HEPES pH 8.0, 37 °C
[8] = substrate: O=C[C@H](O)[C@H](O)COP(=O)(O)O; experiment: purified protein; format: biochemical, Escherichia coli; settings: 1 mM NAD+, 75 mM HEPES pH 8.0, 37 °C
[9] = substrate: O=C[C@H](O)COP(=O)(O)O; experiment: purified protein; format: biochemical, Escherichia coli; settings: 1 mM NAD+, 75 mM HEPES pH 8.0, 37 °C
[10] = biological target: the molecule itself; experiment: SEC; HiLoad 16/600 Superdex 200 pg, 20 mM HEPES-KOH, 50 mM KCl, pH 7.5; preparative step after affinity purification, before crystallisation

T3 sequence (P76149 whole entry Q262R): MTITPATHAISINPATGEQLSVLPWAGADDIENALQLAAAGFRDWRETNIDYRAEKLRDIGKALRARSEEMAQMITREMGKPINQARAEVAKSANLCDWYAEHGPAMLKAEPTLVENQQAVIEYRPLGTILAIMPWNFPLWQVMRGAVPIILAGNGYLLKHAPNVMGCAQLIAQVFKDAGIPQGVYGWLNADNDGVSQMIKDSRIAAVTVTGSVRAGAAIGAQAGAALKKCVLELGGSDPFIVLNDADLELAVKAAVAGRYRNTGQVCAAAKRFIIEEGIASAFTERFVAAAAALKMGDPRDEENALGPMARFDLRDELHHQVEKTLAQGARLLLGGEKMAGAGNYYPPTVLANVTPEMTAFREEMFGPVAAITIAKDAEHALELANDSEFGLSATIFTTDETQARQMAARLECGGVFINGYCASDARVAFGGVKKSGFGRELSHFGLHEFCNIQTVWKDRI

With `N[C@@H](CC=O)C(=O)O` [L-aspartic 4-semialdehyde] the “homoserine dehydrogenase, NADPH consumption at 340 nm” value [1] was “Homoserine dehydrogenase activities of ThrA variants were determined”.

With `NC(=O)c1ccc[n+]([C@@H]2O[C@H](COP(=O)(O)OP(=O)(O)OC[C@H]3O[C@@H](n4cnc5c(N)ncnc54)[C@H](O)[C@@H]3O)[C@@H](O)[C@H]2O)c1` [NAD^+] the X-ray crystallography ([2]; 5 mM NAD+) was “crystal structures of both Sad WT and Q262R variants with bound NAD^+” and the X-ray crystallography [3] was “crystal structures of both Sad WT and Q262R variants with bound NAD^+”.

With `O=CCCC(=O)O` [succinate semialdehyde] the “App. Ki” value [4] was 500 ± 100 µM, the X-ray crystallography ([2]; covalent, bound to C268, NAD+ present, crystal soaked with 5 mM SSA) was “the latter is covalently bound to C268” and the “App. Ki” value [5] was 300 ± 100 µM.

With `O=C[C@H](O)[C@H](O)COP(=O)(O)O` [erythrose 4-phosphate] the “App. Ki” value [4] was 7400 ± 3300 µM.

In the case of `O=C[C@H](O)COP(=O)(O)O` [glyceraldehyde 3-phosphate], the “App. Ki” value [4] is reported as 1400 ± 300 µM.

With `N[C@@H](CC(=O)O)C(=O)O` [L-aspartate] the “aspartate kinase, PK/LDH-coupled, NADH at 340 nm” value [6] was “Aspartate kinase activities of ThrA variants were determined”.

B1: GabD (NADP+-dependent SSADH) (Escherichia coli K-12) (protein)
chain: MKLNDSNLFRQQALINGEWLDANNGEAIDVTNPANGDKLGSVPKMGADETRAAIDAANRALPAWRALTAKERATILRNWFNLMMEHQDDLARLMTLEQGKPLAEAKGEISYAASFIEWFAEEGKRIYGDTIPGHQADKRLIVIKQPIGVTAAITPWNFPAAMITRKAGPALAAGCTMVLKPASQTPFSALALAELAIRAGVPAGVFNVVTGSAGAVGNELTSNPLVRKLSFTGSTEIGRQLMEQCAKDIKKVSLELGGNAPFIVFDDADLDKAVEGALASKFRNAGQTCVCANRLYVQDGVYDRFAEKLQQAVSKLHIGDGLDNGVTIGPLIDEKAVAKVEEHIADALEKGARVVCGGKAHERGGNFFQPTILVDVPANAKVSKEETFGPLAPLFRFKDEADVIAQANDTEFGLAAYFYARDLSRVFRVGEALEYGIVGINTGIISNEVAPFGGIKASGLGREGSKYGIEDYLEIKYMCIGL
Molecule B1 has a Km ([7]; 1 mM NADP+) of 13 ± 1 µM, a kcat ([7]; 1 mM NADP+) of 132 ± 2 s⁻¹ and a kcat/Km ([7]; 1 mM NADP+) of 1e+07 M⁻¹ s⁻¹.

B2: Sad (NAD(P)+-dependent succinate semialdehyde dehydrogenase, SSADH) (Escherichia coli K-12) (protein)
chain: MTITPATHAISINPATGEQLSVLPWAGADDIENALQLAAAGFRDWRETNIDYRAEKLRDIGKALRARSEEMAQMITREMGKPINQARAEVAKSANLCDWYAEHGPAMLKAEPTLVENQQAVIEYRPLGTILAIMPWNFPLWQVMRGAVPIILAGNGYLLKHAPNVMGCAQLIAQVFKDAGIPQGVYGWLNADNDGVSQMIKDSRIAAVTVTGSVRAGAAIGAQAGAALKKCVLELGGSDPFIVLNDADLELAVKAAVAGRYQNTGQVCAAAKRFIIEEGIASAFTERFVAAAAALKMGDPRDEENALGPMARFDLRDELHHQVEKTLAQGARLLLGGEKMAGAGNYYPPTVLANVTPEMTAFREEMFGPVAAITIAKDAEHALELANDSEFGLSATIFTTDETQARQMAARLECGGVFINGYCASDARVAFGGVKKSGFGRELSHFGLHEFCNIQTVWKDRI
notes: dimeric on size exclusion
In the case of B2, the Km [8] is reported as 2,102 ± 328 μM, the kcat [8] is reported as 1.1 ± 0.1 s⁻¹ and the kcat/Km [8] is reported as 530 M⁻¹ s⁻¹. For the same molecule, the Km ([7]; 1 mM NAD+) was 11 ± 1 µM, the kcat ([7]; 1 mM NAD+) was 85 ± 3 s⁻¹ and the kcat/Km ([7]; 1 mM NAD+) was 7.4e+06 M⁻¹ s⁻¹. For the same molecule, the Km [9] was 1,106 ± 92 μM, the kcat [9] was 3.1 ± 0.2 s⁻¹ and the kcat/Km [9] was 2800 M⁻¹ s⁻¹.

B3: NAD(P)+-dependent succinate semialdehyde dehydrogenase of Escherichia coli (Sad), wild type (enzyme)
chain: B2 chain
notes: Succinate semialdehyde dehydrogenase Sad, E. coli; also called Sad WT; SSADH; source: E. coli BL21(DE3), purified (HisTrap, Superdex 200)
B3: binds [10].

B4: Succinate semialdehyde dehydrogenase Sad, Q262R variant (enzyme, Escherichia coli)
chain: B2 chain with Q262R
notes: Succinate semialdehyde dehydrogenase Sad, E. coli, with Q262R (arose in adaptive laboratory evolution); also called Q262R mutant; source: E. coli BL21(DE3), purified (HisTrap, Superdex 200)
B4: binds [10].

B5: Sad (NAD(P)+-dependent succinate semialdehyde dehydrogenase, SSADH) (Escherichia coli K-12; Q262R) (protein)
chain: B2 chain with Q262R
notes: dimeric on size exclusion
Molecule B5 has a Km [8] of 28 ± 4 µM, a kcat [8] of 3 ± 0.1 s⁻¹ and a kcat/Km [8] of 110000 M⁻¹ s⁻¹. For the same molecule, the Km ([7]; 1 mM NAD+) was 5 ± 1 µM, the kcat ([7]; 1 mM NAD+) was 87 ± 4 s⁻¹ and the kcat/Km ([7]; 1 mM NAD+) was 1.9e+07 M⁻¹ s⁻¹. The Km [9] was 67 ± 9 µM, the kcat [9] was 19 ± 1 s⁻¹ and the kcat/Km [9] was 280000 M⁻¹ s⁻¹.
